The source of these data is the DeepSol protein solubility set.

The nature of this data set: soluble on expression in E. coli; label from the status in PepcDB or PDB records.
For the sequence “MTGQPSTPVRPGSVVRTVRRHRGGRSATVQDMVAAEMPVAFNYNGVPFAVMMATPEDLEDFALGFSLSEGIVDHPQDLRVVAVDTFLEGASLQIEIPPERAAALDQRRRNLDGRSGCGVCGNESIEAVLRVPPVLQSALRIDVDALARALDALHARQPIAAQTGAVHAAGWADAQGMVQLVREDVGRHNALDKLIGALARARVDATQGFAVVTSRASYEMAMKAAQARIPLLAAISAPTALAISLADSAGLTLIGFARDHDCVVYSHPQRLDLGVAVGEPALEHHHHHH”, the “soluble on expression in E. coli” value is recorded as “not soluble”.
Regarding “MERIIQQTDYDALSCKLAAISVGYLPSSGLQRLSVDLSKKYTEWHRSYLITLKKFSRRAFGKVDKAMRSSFPVMNYGTYLRTVGIDAAILEFLVANEKVQVVNLGCGSDLRMLPLLQMFPHLAYVDIDYNESVELKNSILRESEILRISLGLSKEDTAKSPFLIDQGRYKLAACDLNDITETTRLLDVCTKREIPTIVISECLLCYMHNNESQLLINTIMSKFSHGLWISYDPIGGSQPNDRFGAIMQSNLKESRNLEMPTLMTYNSKEKYASRWSAAPNVIVNDMWEIFNAQIPESERKRLRSLQFLDELEELKVMQTHYILMKAQWHHHHHH”, the “soluble on expression in E. coli” value is given as “soluble”.
With “MGSDKIHHHHHHMIVKAKFVKGFIRDVHPYGCRREVLNQIDYCKKAIGFRGPKKVLIVGASSGFGLATRISVAFGGPEAHTIGVSYETGATDRRIGTAGWYNNIFFKEFAKKKGLVAKNFIEDAFSNETKDKVIKYIKDEFGKIDLFVYSLAAPRRKDYKTGNVYTSRIKTILGDFEGPTIDVERDEITLKKVSSASIEEIEETRKVMGGEDWQEWCEELLYEDCFSDKATTIAYSYIGSPRTYKIYREGTIGIAKKDLEDKAKLINEKLNRVIGGRAFVSVNKALVTKASAYIPTFPLYAAILYKVMKEKNIHENCIMQIERMFSEKIYSNEKIQFDDKGRLRMDDLELRKDVQDEVDRIWSNITPENFKELSDYKGYKKEFMNLNGFDLDGVDYSKDLDIELLRKLEP” the entry was “not soluble”.
In the case of “MSLDSWSRNFELLINSRTPLIWIRTKEEERLYKVIDKSCKKLNIKRFVSWDCVNGIKGVLNENGKFSNNPMGVLNWIKAQTSEIPTILLVRDFHKFYDDPSISRTIKELSSSLRETNNNLILSSHILPSSEELDDLITILNLPLPDLSELTALIKKIAFNTDSDLSEQDLNELAIASSGLSEIKVKQVTAKALAQRGKISKFDIKDMLEEKKQVIARSEGHHHHHH”, the “soluble on expression in E. coli” value was “soluble”.
The same measure for “MGSDKIHHHHHHMKYLLLIPDGMADWEVEELDGRTPLEVAETENMDFLAKEGACGIAKTVPDGFEPGSDVANLTILGVDVRKHYTGRGPIEALARGVKGKLVFRCNLVKVEDGVMVDYSGGRISDEEARKVIEELNRAKPYDFVKFYAGKSYRNLLVINKDFRDDVKTFPPHDITGKEIDKHLPSGGELAELLKELMGWSAEILPEITDKANMIWPWGGGRMPSFPNFGQRYGLRGAMITEVDLLEGIARGMGMEVVQVEGITGYIDTNYRGLVRETARALEEHDFVVLHTEGIDEVGHEGDAELKVRAIELYDSKIVGKLLNKVDLDETRILLLPDHPTPVKVKTHVAEPVPFTLYGRGRDEVKVYTEKSCRRGKFGLVDGLRLMDLLIKK”: “not soluble”.
The same measure for “MGSDKIHHHHHHMETRNLQRNPILLVHGITDTEAVFDQMAAYLRQMGWTVYTLNLVPNNGEAPLNVLAQQVADYVAANITPEQPFDLVGFSMGGIVSRYYVQRLGGISHVQRFVTISSPHYGTVIAYASQRPGCVQMRPNSLFLQDLNHDVQMLEELNFTSIWTPYDLMIVPTHSSKMPVGKELSIPVALHSWMLRDVRSIEAVAAALAEPINCDRRFEYIPNSSIHN”: “not soluble”; for “QRSTFGTKHMVFRTDQLIDGIERNVRITSEEVNAALPVPLLDRQDPGAILISGSSYTEPSEALQTMREAMTQEKFSGSVEIPLGIVRALLDLGFTDEAASWLEDLVPRLGNEWRHQWYSGVTSLLLDDYLTAQQHFNEVYNILPGESAPKLARAAVCEMLLQEKGLESTALLDPAVTVAAADIKGEGMSNIWRELTSDPATLRFKAIYLYALVWRTNPTTVSSAFGLARQLAAENQIDLAVSTLDRVPQNSTHRRMAELTAILHLLGDLSEARLRRAARRLEAIPTNEPRFLQIQIAIMNAALQWLRTGGEAANDPIFEYPFTQRGLRNGLSATLRQLARSAPSSHRYALVDVANQVRPMTWF”: “not soluble”.
With “YESIDLKAVLFDMDGVLFDSMPNHAESWHKIMKRFGFGLSREEAYMHEGRTGASTINIVSRRERGHDATEEEIKAIYQAKTEEFNKCPKAERMPGALEVLTKIKSEGLTPMVVTGSGQTSLLDRLNHNFPGIFQANLMVTAFDVKYGKPNPEPYLMALKKGGFKPNEALVIENAPLGVQAGVAAGIFTIAVNTGPLHDNVLLNEGANLLFHSMPDFNKNWETLQSALKQ” the entry was “not soluble”.
With “MGSDKIHHHHHHMLNPREIRTIEDAKRIVEERQLTHVKVGLFDIDGVMLGKYMSRNKFFSALEHGFAFCDVILGWDSKDKLYDNVKYTGWHTGYPDASVRIVPSTCREILFEENQLLFMAEFSQAAEAICPRGILRRVINKAAGMGYDVYAALEYEFFVFDETPDSVRAKGFRNLKPVTPDNFGYSIIRNTVHAEFYHQILTMAEKMDFPIEGLHTETGPGVLEAAIAVDDAEAAGDKAALFKTFMKILAQRNNKMATFMAKWSGDYPGQSGHIHLSLRDRDGGKSAFYESGREYNMSKIQRHFLAGQQKLMPEFLAMLSPTVNSYSRLIPGYWAPTEATWGVENRTTALRVIPGSDKSQRIEYRLGSADANPYLALAAAIGSGLYGIENELEPEAEVKGNSYEQHHSPALALPRTLWESAQNLKNSSAAYELFGQEFVEHFAASREWEEREFRKHITDWELDRYFEII”, the “soluble on expression in E. coli” value is “not soluble”.
With “MGHHHHHHSHMLREPGDPEKLGEFLQKDNISVHYFCLILSSKLPQRGQSNRGSMDFCLKTSKRRQPGLLGRSALCARKRELLSTARRISASETSICLVAKKGVAFHNFLESTNHFVTNIAQHRTSNMGMWGRKAASYVVKTYPNRVLRTSRARVVVKPSTTASAYRNMPTHQQSISSNVHSVTIERVSSRNAENGNPYSRQEVVPHSVCYVRIPRNPQGLLLS” the entry was “not soluble”; with “MRIDFGAGDEISFIKKGHAGVIKLARSSALNALNGRMVSALKKALSVWETDDDVSCVLIEGEGRAFCAGGDVVEIYHMEEKISSYQYFNDEYRLNAYIKHFRKPYISFLNGIWMGGGVGISIYGSHRIVTENTLFAMPESAIGFFPDVGASFFLPSLPDHFGIYLALTGARIKWGDCLNLGLATHAVPEIELECIRKAIIEQGNPQLALEEHAITKDYETSHEIRSVINACFGTHTLEECMELLYKKSNEGLFFARECYDILQSRSPTSLKVIWKQMKQNSSQTLEECMKIENRIAHHMINSHDFREGVRAMLIDKDKTPKWQPDKLSNITDEMIDAYFQPVEKELLF”, “not soluble”; with “MEQYDQLYRLYKSVDTTTLRGYQEFVDLFPPLSSTVALEQWETASDRLDALKADITDEFPGTGETYAEIAARLTRDEAFTALDLYSKYDRSVNVLVLDVDETLRSAGDTDNEIPRDTLYLLTQFHEAGIPIVVCTGQTLENVKGFMIQGLGNDLVSSGQMSIVYESGNGVFTPKHGEDTKRLLYERLDGAVVDVFETVRRRVLSEAPDAVGKRCHLQGNEFNVTLKPNAEVGSDNAVEIIDESLCYLCGLVGDAIAAQVDAEVDDPAGYARAYFSRDPEILDVLEAGGLPTHADIEDAPEAFRDILERVDLGYYEGDAAELVSLELDKSAGVEEAFDVLGIDDPFALVMGDSKSDLRVMRWVDENDAGIAAAPAHSSPDVLDHVSSRDDLVYEAGDASTVLRTIYGISLVEQLDEQGE”, “soluble”.
With “MSLARKNTATRQVIHIVGEGLTELFYFSHLKKILGYRYSISPRLFENNSIEKIEKKIKELLDEDVFVICVFDADVSRRSDAENKKMVSFKKKYENNPNVILCDSLQSIEYWFLLHFEDTCRHFQDSAATERALKQYLPTYDKTRKYLEKDKWVKEMLAGSKMDKACELAEKYKGRDSYSEIYKAIKKVSQNEGHHHHHH” the entry was “soluble”; with “MLGAIIGDIVGSVYEWNNIKTKDFPLFRKDCFFTDDTVMTCAVAEAIMNGGQKDDFIDAMKKYGRMYPNADYGARFNAWLNSDNREPYNSFGNGSAMRISPCAWIMDCGFYAKTGIWPSSRGLTSLSAEVTHNHPEGVKGAMATADAIFLCRFYFGGYCREYEQSINDNPTECKRRIKDYIEKEYDYNLSQTLDEIRPNYRFNETCQETVPQAIIAFLESRDFEDAIRNAISLGGDSDTLAAITCSIAEAAYGIPDWIKDKAYSYLDEPLKDVVRRWENRIKAYLEHHHHHH”, “soluble”.
With “MGSDKIHHHHHHMSSTPSNQNIIPIIKKESIVSLFEKGIRQDGRKLTDYRPLSITLDYAKKADGSALVKLGTTMVLAGTKLEIDKPYEDTPNQGNLIVNVELLPLAYETFEPGPPDENAIELARVVDRSLRDSKALDLTKLVIEPGKSVWTVWLDVYVLDYGGNVLDACTLASVAALYNTKVYKVEQHSNGISVNKNEVVGKLPLNYPVVTISVAKVDKYLVVDPDLDEESIMDAKISFSYTPDLKIVGIQKSGKGSMSLQDIDQAENTARSTAVKLLEELKKHLGI” the entry was “not soluble”; with “MSLSSAYQLVIFDWEGTIADTLGVILHTVATEAKMLGFGDIDPYQARKYVDLGLVQAVKKTLPNLTAGQQEDLLQAVQSAMISRPTEVRLIPGVLEFIQQLHQAKVDLAIATNKGHNSLIRALQATELDQLFKVTRSAGQVPAKPCPQMLEEIMEEFGRDPSSTLMIGDSTTDMEMAKRINVNAIGMDFYHQQEDALKAAGALAVFDDYKLLSAYLMLPEAEGHHHHHH”, “soluble”.
In the case of “MKPKAMIRTMAIMKTADILKAMDITEELAKRMGFLPRDCLFLRLATEEACTNAYEYCQKTRKLPFRIFWKMEARQFMIIVKQRGGCFSVAQTDVVNTGPRGRGLQLITHIVDDVYVKQAGNNVLFCMCKCKK”, the “soluble on expression in E. coli” value is given as “not soluble”.
With “EMIHHAKNQLIMCSPYFIPDESMLEAVTSACYRGVRVELLVSEQADQFVVDHAQSSYYQTLLEAGVHIYRYHAPAVLHSKFLIADPHGVAVSVMGSSNMDMRSFGLNYEVSLMTLQGQLTHLLYELAETYKENSTELTLEEWNQRGIVRRYVDNIMKLTSALQ” the entry was “not soluble”; with “MHHHHHHSSGVDLGTENLYFQSMDVGIVALEIYFPSQYVDQAELEKYDGVDAGKYTIGLGQAKMGFCTDREDINSLCMTVVQNLMERNNLSYDCIGRLEVGTETIIDKSKSVKTNLMQLFEESGNTDIEGIDTTNACYGGTAAVFNAVNWIESSSWDGRYALVVAGDIAVYATGNARPTGGVGAVALLIGPNAPLIFERGLRGTHMQHAYDFYKPDMLSEYPIVDGKLSIQCYLSALDRCYSVYCKKIHAQWQKEGNDKDFTLNDFGFMIFHSPYCKLVQKSLARMLLNDFLNDQNRDKNSIYSGLEAFGDVKLEDTYFDRDVEKAFMKASSELFSQKTKASLLVSNQNGNMYTSSVYGSLASVLAQYSPQQLAGKRIGVFSYGSGLAATLYSLKVTQDATPGSALDKITASLCDLKSRLDSRTGVAPDVFAENMKLREDTHHLVNYIPQGSIDSLFEGTWYLVRVDEKHRRTYARRP”, “soluble”; with “MDFHIDEKYKGMGKGRTFLIKTYGCQMNAHDTEVMAGILNALGYSATSDINEADVILINTCAIRENAENKVFSEIGNLKHLKKERPDCLIGVCGCMSQEESVVNKILKSYQNVDMVFGLEHHHHHH”, “not soluble”.
With “GIDPFTFENATSDAINQDMMLYIERIAKIIQKLPKRVHINVRGFTDDTPLVKTRFKSHYELAANRAYRVMKVLIQYGVNPNQLSFSSYGSTNPIAPNDSLENRMKNNRVEIFFSTDANDLSKIHSILDNEFNPHKQQE” the entry was “soluble”.
